Experimental data from US20240043507A1.

How the values were obtained:
[1] = molecular target: SARS-CoV-2 spike receptor binding domain K417T (SARS-CoV-2) (UniProt P0DTC2); assay: BLI, RBD on AR2G biosensor, mAb as analyte
[2] = molecular target: spike protein of SARS-CoV-2 strain B.1.351 (SARS-CoV-2) (UniProt P0DTC2); assay: cell-based or functional assay
[3] = molecular target: SARS-CoV-2 receptor binding domain with N501Y (SARS-CoV-2) (UniProt P0DTC2); assay: BLI, RBD immobilised on AR2G biosensor, 1:1 fit
[4] = molecular target: SARS-CoV-2 spike protein on authentic virus, strain B.1.1.7 (SARS-CoV-2) (UniProt P0DTC2); assay: cell-based or functional assay
[5] = molecular target: SARS-CoV-2 spike protein on authentic virus, strain SARS-CoV-2/human/AUS/VIC01/2020 (Victoria) (SARS-CoV-2) (UniProt P0DTC2); assay: cell-based or functional assay

AZD1061 (antibody)
Kd [1]: 8 nM | IC50 (FRNT, live virus neutralisation) [2]: 0.014 µg/mL

AZD1061 as tested by BLI (Fab by the footnote of Table 12)
Kd [3]: 1.41 nM

AZD7442 (a combination of AZD1061 and AZD8895)
B.1.1.7/Victoria Ratio of IC50 [4]: 0.77 | IC50 (ug/ml), FRNT [4]: 0.007 µg/mL | IC50 (ug/ml), FRNT [5]: 0.009 µg/mL

AZD8895 (antibody)
IC50 (FRNT, live virus neutralisation) [2]: 0.046 µg/mL

AZD8895 as tested by BLI (Fab by the footnote of Table 12)
Kd [3]: 2.44 nM

REGN10933 (antibody)
IC50 (FRNT, live virus neutralisation) [2]: 3.28 µg/mL

REGN10933 as tested by BLI (Fab by the footnote of Table 12)
Kd [3]: 2.75 nM

REGN10987 (antibody)
IC50 (FRNT, live virus neutralisation) [2]: 0.007 µg/mL

REGN10987 as tested by BLI (Fab by the footnote of Table 12)
Kd [3]: 3.09 nM
